Data published in IntAct's records for PubMed 18256029.

target: pdcd6_human PDCD6 (UniProt O75340)
Sequence (O75340 whole entry): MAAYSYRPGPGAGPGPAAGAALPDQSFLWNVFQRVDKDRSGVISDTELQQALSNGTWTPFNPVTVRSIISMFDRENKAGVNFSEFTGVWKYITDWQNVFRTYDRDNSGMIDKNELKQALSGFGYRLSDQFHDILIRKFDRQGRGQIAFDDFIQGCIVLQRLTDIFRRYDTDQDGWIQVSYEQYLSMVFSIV

Phospholipid scramblase 3 (Homo sapiens), Q9NRY6 F49A, sequence (Q9NRY6 whole entry F49A): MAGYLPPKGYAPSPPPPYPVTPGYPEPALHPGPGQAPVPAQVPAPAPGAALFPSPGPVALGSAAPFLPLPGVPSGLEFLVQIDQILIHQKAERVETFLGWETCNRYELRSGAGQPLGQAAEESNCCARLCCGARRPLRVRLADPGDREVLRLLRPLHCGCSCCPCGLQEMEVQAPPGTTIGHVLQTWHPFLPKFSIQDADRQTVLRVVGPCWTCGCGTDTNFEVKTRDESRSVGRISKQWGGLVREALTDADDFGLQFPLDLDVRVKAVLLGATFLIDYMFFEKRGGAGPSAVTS
Phospholipid scramblase 3 (Homo sapiens), Q9NRY6 P43A;P45A;P47A;P53A, sequence (Q9NRY6 whole entry P43A/P45A/P47A/P53A): as the sequence (Q9NRY6 whole entry F49A) above, with P43A, P45A, P47A, A49F, P53A counted along it
Phospholipid scramblase 3 (Homo sapiens), Q9NRY6 F49L, sequence (Q9NRY6 whole entry F49L): as the sequence (Q9NRY6 whole entry F49A) above, with A49L counted along it
Phospholipid scramblase 3 (Homo sapiens), Q9NRY6 F49Y, sequence (Q9NRY6 whole entry F49Y): as the sequence (Q9NRY6 whole entry F49A) above, with A49Y counted along it
Phospholipid scramblase 3 (Homo sapiens), Q9NRY6 F49A;F52A, sequence (Q9NRY6 whole entry F49A/F52A): as the sequence (Q9NRY6 whole entry F49A) above, with F52A counted along it

effect of a mutation on the interaction	Substance
decreasing interaction	Phospholipid scramblase 3 (Homo sapiens), Q9NRY6 F49A
disrupting interaction	Phospholipid scramblase 3 (Homo sapiens), Q9NRY6 F49A;F52A
decreasing interaction	Phospholipid scramblase 3 (Homo sapiens), Q9NRY6 F49L
decreasing interaction	Phospholipid scramblase 3 (Homo sapiens), Q9NRY6 F49Y
decreasing interaction	Phospholipid scramblase 3 (Homo sapiens), Q9NRY6 P43A;P45A;P47A;P53A
